Tests used:
O83132 = test: AUC; sedimentation velocity, 50,000 rpm, 20 °C, Working Buffer (20 mM HEPES, 0.1 M NaCl, pH 7.5, 2 mM n-octyl-β-D-glucopyranoside); 10 μM, 31 μM and 100 μM; c(s) analysis; monomer to dimer
[1] = molecular target: the molecule itself; test: as above

B1: TP0094 (putative phosphotransacetylase, Pta) of Treponema pallidum, wild-type (enzyme, UniProt O83132 1-336, looked up)
chain: MTFVESMQRRAVLAQKRLVLPEACEQRTLEAARLIVFRNIAAKVFLVGCERDIKNTADRCGIDLTDMVVIDPSVSKHRDQFAERYFQKRKHKGISLAQAAEDMRDPLRFAAMMLDQGHADAMVAGAENTTARVLRAGLTIIGTLPSVKTASSCFVMDTNNPRLGGTRGLFIFSDCAVIPTPTAEQLADIACSAAESCRTFIGEEPTVALLSYSTKGSGGDSDENILRVREAVRILHERRVDFTFDGELQLDAALVPKITEKKAPHSPITGKVNTLVFPDLSSGNIGYKLVQRLSDADAYGPFLQGFAKPLSDLSRGCSVEDIVAACAVTLVQSNGR
notes: TP0094, putative phosphotransacetylase (Pta; EC 2.3.1.8) of Treponema pallidum; DNA fragment encoding all amino-acid residues of TP0094; also called TpPta; WT TP0094; source: E. coli BL21 AI (co-transformed with pGroESL), purified
For B1, the “mass purity of the dimer” value (O83132) was “we estimate the mass purity of the dimer to range from 95–97%” and the “stoichiometry N” value [1] was 2.
